In paper PMC6030378:

Biological target: human IgG1 Fc fragment released from ROR-ED-Fc by 3C protease (human)
Test: SEC; Superdex 200 10/300 of the fusion protein cleaved with 3C protease; 50 mM HEPES, 500 mM NaCl, 150 mM KCl, 300 mM arginine, 5% glycerol; ROR-ED at 12.4 ml, Fc at 14.3 ml; mass estimated against standards, glycans considered

stoichiometry N: 2
Substance: human IgG1 Fc fragment released from ROR-ED-Fc by 3C protease (domain or fragment)
